Source: US6380373B1, “Steroid receptor coactivator compositions and methods of use” (Baylor College of Medicine, priority 1995, dated 2002)

How the values were obtained:
ER = molecular target: T1, ER (Homo sapiens, UniProt P03372); test: CAT reporter assay ER/ERE2-TATA-CAT in HeLa cells; type: cell-based; settings: 3 μg SRC-1, estradiol 2×10^−8 M
T1 construct: expressed in transfected cells; host or cells: HeLa
T1 sequence (P03372 1-595): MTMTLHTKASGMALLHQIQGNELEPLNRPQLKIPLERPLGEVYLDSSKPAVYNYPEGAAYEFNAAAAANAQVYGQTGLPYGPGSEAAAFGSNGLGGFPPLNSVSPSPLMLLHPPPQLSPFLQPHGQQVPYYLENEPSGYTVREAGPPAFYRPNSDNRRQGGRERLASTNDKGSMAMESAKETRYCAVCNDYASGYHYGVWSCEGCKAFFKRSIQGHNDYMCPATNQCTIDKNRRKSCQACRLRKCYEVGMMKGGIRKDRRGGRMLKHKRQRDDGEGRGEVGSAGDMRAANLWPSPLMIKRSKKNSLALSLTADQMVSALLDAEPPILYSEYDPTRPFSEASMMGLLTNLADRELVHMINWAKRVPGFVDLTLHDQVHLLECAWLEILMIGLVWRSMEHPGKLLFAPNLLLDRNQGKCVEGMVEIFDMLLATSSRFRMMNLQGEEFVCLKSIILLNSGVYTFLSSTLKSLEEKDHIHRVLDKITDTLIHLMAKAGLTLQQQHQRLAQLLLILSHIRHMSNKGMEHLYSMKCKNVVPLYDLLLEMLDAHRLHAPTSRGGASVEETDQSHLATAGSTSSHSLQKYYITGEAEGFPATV
Experimental: (§1) Biol. 13, 6501-6508), Sp1 and Sp1-tk-CAT (Courey, A. J. and Tjian, R. (1988), Cell 55, 887-898), CREB and CRE-tk-CAT (Chrivia, J. C. et al., (1993), Nature 365, 855) and GAL4VP16 and 17mer-tk-CAT (Baniahmad, A. et al., (1992), EMBO J. 11, 1015-1023) have been previously described and the above references are incorporated herein by reference in their entirety, including any drawings.
(§2) Lipofectin (GibcoBRL) was selected for transfection of Hela cells.
(§3) HeLa cells were cotransfected with 0.5 μg of cDNAs encoding various steroid receptors indicated and 5 μg of their cognates HREs containing reporters, including PR/PRE2-TATA-CAT, ER/ERE2-TATA-CAT, GR/PRE2-TATA-CAT, TR-/DR4-tk-CAT and RXR/DR1-tk-CAT, along with 3 μg of SRC-1 or empty expression vector. Cells were then treated with their corresponding ligands (PR:R5020, ER:estradiol, GR:dexamethasone, TR:Triac, RXR:9-cis retinoic acid) at a concentration of 2×10^−8M. The CAT activity of the reporter was determined using 14 μg of protein extract.

GAL4-VP16 = settings: HeLa cells, UASG element
Experimental: Cells were maintained in Dulbecco's modified Eagle's medium supplemented with 10% (vol/vol) fetal calf serum (Smith, C. L. et al., (1993), Proc. Natl. Acad. Sci. USA 90, 6120-6124). The day before transfection, 10^6 cells were seeded in 100 mm dishes and 4-6 h later switched serum-free medium supplemented with Nutridoma-SR (Boehringer Mannhein). When ER was used for transfections, phenol-red-free medium was used (Smith, C. L. et al., (1993), Proc. Natl. Acad. Sci. USA 90, 6120-6124). HeLa cells were transfected with mammalian expression vectors encoding steroid receptors or other transcription factors along with 5 μg of CAT reporter. Lipofectin (GibcoBRL) was selected for transfection of Hela cells.
Cells were then harvested and proteins prepared as whole-cell extracts by freeze-thaw lysis. The reporter CAT activity in the extract was determined using 100 uCi of [^14C]-chloramphenicol and 4 mM acetyl coenzyme A as substrate and standardized by protein content. Activity of the extract was calculated by determining the percentage of conversion of [^14C]-chloramphenicol to the mono and diacetylated forms (Ausubel, F. M., et al., (1992), Short Protocols In Molecular Biology, New York: Greene Publishing Associates and John Wiley & Sons). […]

E47 = molecular target: T2, E47 (Homo sapiens, UniProt P15923); test: Effect on the transcriptional activity of E47; type: cell-based
T2 sequence (P15923 1-651 isoform P15923-2): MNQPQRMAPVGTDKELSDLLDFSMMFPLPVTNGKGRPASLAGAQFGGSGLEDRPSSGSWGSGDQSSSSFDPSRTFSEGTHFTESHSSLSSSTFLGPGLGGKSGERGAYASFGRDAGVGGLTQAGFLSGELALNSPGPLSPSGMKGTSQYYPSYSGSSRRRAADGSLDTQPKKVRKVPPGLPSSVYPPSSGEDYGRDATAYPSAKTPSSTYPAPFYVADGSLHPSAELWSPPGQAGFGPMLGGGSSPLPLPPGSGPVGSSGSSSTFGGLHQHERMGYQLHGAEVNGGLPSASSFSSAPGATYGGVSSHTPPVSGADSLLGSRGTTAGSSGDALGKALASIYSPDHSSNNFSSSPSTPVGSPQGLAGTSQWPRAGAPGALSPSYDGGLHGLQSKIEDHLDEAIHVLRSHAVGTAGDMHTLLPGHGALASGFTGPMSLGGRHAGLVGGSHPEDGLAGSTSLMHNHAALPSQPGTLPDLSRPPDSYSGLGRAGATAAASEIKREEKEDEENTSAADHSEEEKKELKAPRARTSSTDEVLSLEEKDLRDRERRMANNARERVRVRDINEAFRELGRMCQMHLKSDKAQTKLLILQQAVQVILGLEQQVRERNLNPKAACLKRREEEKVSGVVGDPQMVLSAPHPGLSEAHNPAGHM

RXR = molecular target: T3, RXR (Mus musculus, UniProt P28704); test: CAT reporter assay RXR/DR1-tk-CAT in HeLa cells; type: cell-based; settings: 3 μg SRC-1, 9-cis retinoic acid 2×10^−8 M
T3 construct: expressed in transfected cells; host or cells: HeLa
T3 sequence (P28704 1-520): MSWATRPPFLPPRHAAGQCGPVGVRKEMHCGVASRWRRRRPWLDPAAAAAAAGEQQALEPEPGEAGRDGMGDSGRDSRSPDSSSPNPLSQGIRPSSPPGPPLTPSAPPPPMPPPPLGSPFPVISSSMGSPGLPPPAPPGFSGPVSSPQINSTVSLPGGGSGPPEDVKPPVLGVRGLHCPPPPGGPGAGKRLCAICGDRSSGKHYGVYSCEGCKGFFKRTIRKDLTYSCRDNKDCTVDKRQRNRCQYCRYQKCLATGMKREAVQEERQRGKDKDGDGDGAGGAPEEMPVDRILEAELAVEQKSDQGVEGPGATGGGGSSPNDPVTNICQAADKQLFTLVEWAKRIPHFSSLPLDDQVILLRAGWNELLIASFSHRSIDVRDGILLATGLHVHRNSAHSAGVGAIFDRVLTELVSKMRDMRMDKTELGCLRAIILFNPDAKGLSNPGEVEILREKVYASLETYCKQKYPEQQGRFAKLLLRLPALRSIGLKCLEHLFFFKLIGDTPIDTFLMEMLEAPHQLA
Experimental: as §1, §2, §3

B1: steroid receptor coactivator-one (SRC-1), full-length (protein)
chain: MSIPRVNPSVNPSISPAHGVARSSTLPPSNSNMVSTRINRQQSSDLHSSSHSNSSNSQGSFGCSPGSQIVANVALNKGQASSQSSKPSLNLNNPPMEGTGISLAQFMSPRRQVTSGLATRPRMPNNSFPPNISTLSSPVGMTSSACNNNNRSYSNIPVTSLQGMNEGPNNSVGFSASSPVLRQMSSQNSPSRLNIQPAKAESKDNKEIASTLNEMIQSDNSSSDGKPLDSGLLHNNDRLSDGDSKYSQTSHKLVQLLTTTAEQQLRHADIDTSCKDVLSCTGTSNSASANSSGGSCPSSHSSLTARHKILHRLLQEGSPSDITTLSVEPDKKDSASTSVSVTGQVQGNSSIKLELDASKKKESKDHQLLRYLLDKDEKDLRSTPNLSLDDVKVKVEKKEQMDPCNTNPTPMTKATPEEIKLEAQSQFTADLDQFDQLLPTLEKAAQLPGLCETDRMDGAVTSVTIKSEILPASLQSATARPTSRLNRLPELELEAIDNQFGQPGTGDQIPWTNNTVTAINQSKSEDQCISSQLDELLCPPTTVEGRNDEKALLEQLVSFLSGKDETELAELDRALGIDKLVQGGGLDVLSERFPPQQATPPLIMEERPNLYSQPYSSPFPTANLPSPFQGMVRQKPSLGTMPVQVTPPRGAFSPGMGMQPRQTLNRPPAAPNQLRLQLQQRLQGQQQLIHQNRQAILNQFAATAPVGINMRSGMQQQITPQPPLNAQMLAQRQRELYSQQHRQRQLIQQQRAMLMRQQSFGNNLPPSSGLPVQTGNPRLPQGAPQQFPYPPNYGTNPGTPPASTSPFSQLAANPEASLANRNSMVSRGMTGNIGGQFGTGINPQMQQNVFQYPGAGMVPQGEANFAPSLSPGSSMVPMPIPPPQSSLLQQTPPASGYQSPDMKAWQQGAIGNNNVFSQAVQNQPTPAQPGVYNNMSITVSMAGGNTNVQNMNPMMAQMQMSSLQMPGMNTVCPEQINDPALRHTGLYCNQLSSTDLLKTEADGTQQVQQVQVFADVQCTVNLVGGDPYLNQPGPLGTQKPTSGPQTPQAQQKSLLQQLLTE
- effect on ER transcriptional activity (ER): enhance
- effect on GAL4-VP16 transcriptional activity (GAL4-VP16): enhanced
- effect on E47 transcriptional activity (E47): did not alter
- effect on RXR transcriptional activity (RXR): enhance
